From publication PMC5339894, “G196 epitope tag system: a novel monoclonal antibody, G196, recognizes the small, soluble peptide DLVPR with high affinity” (Scientific Reports, 2017)

B1: mAb G196 [mouse] / biotin-SGSGSDLVPRG [modified: biotin on the N-terminus; biotin on the N-terminus] (parent complex)
chain 1: QVKLQESGAELVKPGASVKLSCKASGYTFTNYWMHWVKLRPGQGFEWIGEINPSNGGSNYNEKFKRKATLTVDKSSSTAYMQLSSLTSEDSAVFYCSIWDSYFDYWGQGTTLTVSSAKTTPPSVYPLAPGSAAQTNSMVTLGCLVKGYFPEPVTVTWNSGSLSSGVHTFPAVLQSDLYTLSSSVTVPSSPWPSETVTCNVAHPASSTKVDKKIVPRDC
chain 2: NIVMTQSPKSMSMSVGERVTLTCKASENVVTYVSWYQQKPEQSPKLLIYGASNRYTGVPDRFTGSGSATDFTLTISSVQAEDLADYHCGQGYSYPYTFGGGTKLEIKRADAAPTVSIFPPSSEQLTSGGASVVCFLNNFYPKDINVKWKIDGSERQNGVLNSWTDQDSKDSTYSMSSTLTLTKDEYERHNSYTCEATHKTSTSPIVKSFNRNEC
chain 3: SGSGSDLVPRG

Variants of: B1
Assay: permutation ELISA (densitometry of spots); parent: 1; read off a plot
chain 3 V8S was tested, and the ratio to parent was about 0.44. In the case of chain 3 V8L, the ratio to parent is reported as about 0.13. In the case of chain 3 V8W, the ratio to parent is reported as about 0.03. For chain 3 V8I, the ratio to parent was about 0.96. chain 3 V8M showed a ratio to parent of about 0.09. Work on chain 3 V8R yielded a ratio to parent of about 0.07. Work on chain 3 V8A yielded a ratio to parent of about 0.82. chain 3 V8C showed a ratio to parent of about 0.08. chain 3 V8Q gave a ratio to parent of about 0.16. For chain 3 V8F, the ratio to parent was about 0.04. In the case of chain 3 V8H, the ratio to parent is reported as about 0.08. Variant chain 3 V8G has a ratio to parent of about 0.03. chain 3 V8D gave a ratio to parent of about 0.03. chain 3 V8P gave a ratio to parent of about 0.04. chain 3 V8Y showed a ratio to parent of about 0.05. chain 3 V8E was tested, and the ratio to parent was about 0.07. With chain 3 V8K the ratio to parent was about 0.05. In the case of chain 3 V8T, the ratio to parent is reported as about 0.95. chain 3 V8N showed a ratio to parent of about 0.11. With chain 3 D6N the ratio to parent was about 0.25. chain 3 D6I was tested, and the ratio to parent was about 0.08. chain 3 D6T gave a ratio to parent of about 0.19. Variant chain 3 D6W has a ratio to parent of about 0.12. chain 3 D6A was tested, and the ratio to parent was about 0.38. With chain 3 D6P the ratio to parent was about 0.16. With chain 3 D6G the ratio to parent was about 0.7. Work on chain 3 D6E yielded a ratio to parent of about 1. Work on chain 3 D6Q yielded a ratio to parent of about 0.48. For chain 3 D6M, the ratio to parent was about 0.11. chain 3 D6Y showed a ratio to parent of about 0.11. Work on chain 3 D6F yielded a ratio to parent of about 0.09. For chain 3 D6H, the ratio to parent was about 0.15. chain 3 D6K showed a ratio to parent of about 0.05. Variant chain 3 D6R has a ratio to parent of about 0.07. In the case of chain 3 D6C, the ratio to parent is reported as about 0.26. Work on chain 3 D6V yielded a ratio to parent of about 0.04. Variant chain 3 D6L has a ratio to parent of about 0.06. chain 3 D6S was tested, and the ratio to parent was about 0.95. With chain 3 L7T the ratio to parent was about 0.11. chain 3 L7F showed a ratio to parent of about 0.72. In the case of chain 3 L7I, the ratio to parent is reported as about 0.99. With chain 3 L7N the ratio to parent was about 0.6. chain 3 L7K showed a ratio to parent of about 0.1. Work on chain 3 L7M yielded a ratio to parent of about 0.84. Work on chain 3 L7Q yielded a ratio to parent of about 0.07. With chain 3 L7A the ratio to parent was about 0.08. For chain 3 L7G, the ratio to parent was about 0.04. For chain 3 L7C, the ratio to parent was about 0.06. chain 3 L7S showed a ratio to parent of about 0.06. For chain 3 L7D, the ratio to parent was about 0.11. In the case of chain 3 L7Y, the ratio to parent is reported as about 0.15. Work on chain 3 L7H yielded a ratio to parent of about 0.62. Work on chain 3 L7R yielded a ratio to parent of about 0.13. chain 3 L7E gave a ratio to parent of about 0.08. With chain 3 L7P the ratio to parent was about 0.02. Work on chain 3 L7V yielded a ratio to parent of about 0.11. chain 3 L7W showed a ratio to parent of about 0.05. For chain 3 P9K, the ratio to parent was about 0.4. chain 3 P9C gave a ratio to parent of about 0.78. Work on chain 3 P9V yielded a ratio to parent of about 0.87. chain 3 P9Y gave a ratio to parent of about 0.89. Variant chain 3 P9R has a ratio to parent of about 0.74. With chain 3 P9D the ratio to parent was about 0.78. chain 3 P9F showed a ratio to parent of about 0.86. For chain 3 P9N, the ratio to parent was about 0.76. Work on chain 3 P9M yielded a ratio to parent of about 0.82. With chain 3 P9S the ratio to parent was about 0.81. For chain 3 P9E, the ratio to parent was about 0.86. In the case of chain 3 P9T, the ratio to parent is reported as about 0.59. chain 3 P9H showed a ratio to parent of about 0.74. Work on chain 3 P9A yielded a ratio to parent of about 0.98. With chain 3 P9W the ratio to parent was about 0.82. Variant chain 3 P9Q has a ratio to parent of about 0.72. chain 3 P9I was tested, and the ratio to parent was about 0.85. For chain 3 P9L, the ratio to parent was about 0.72. In the case of chain 3 P9G, the ratio to parent is reported as about 0.67. In the case of chain 3 R10H, the ratio to parent is reported as about 0.38.
